The target in one test is T1, 34S-AIMP2 (UniProt Q13155 1-320).
T1 sequence (looked up): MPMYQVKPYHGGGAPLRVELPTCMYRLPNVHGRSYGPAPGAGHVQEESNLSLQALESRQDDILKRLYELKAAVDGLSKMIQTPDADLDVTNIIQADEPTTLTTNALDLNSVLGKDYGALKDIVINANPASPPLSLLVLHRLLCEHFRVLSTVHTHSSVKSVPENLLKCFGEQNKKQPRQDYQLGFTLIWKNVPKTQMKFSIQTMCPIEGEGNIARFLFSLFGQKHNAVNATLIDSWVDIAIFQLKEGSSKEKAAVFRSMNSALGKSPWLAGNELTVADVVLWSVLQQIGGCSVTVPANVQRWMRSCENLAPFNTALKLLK
Put plainly: ELISA; protein coated at 1 μg/ml, OD 450 nm.

The next test deals with T2, His-CRS (UniProt P49589 1-748).
T2 construct: not shown: His tag
T2 sequence (looked up): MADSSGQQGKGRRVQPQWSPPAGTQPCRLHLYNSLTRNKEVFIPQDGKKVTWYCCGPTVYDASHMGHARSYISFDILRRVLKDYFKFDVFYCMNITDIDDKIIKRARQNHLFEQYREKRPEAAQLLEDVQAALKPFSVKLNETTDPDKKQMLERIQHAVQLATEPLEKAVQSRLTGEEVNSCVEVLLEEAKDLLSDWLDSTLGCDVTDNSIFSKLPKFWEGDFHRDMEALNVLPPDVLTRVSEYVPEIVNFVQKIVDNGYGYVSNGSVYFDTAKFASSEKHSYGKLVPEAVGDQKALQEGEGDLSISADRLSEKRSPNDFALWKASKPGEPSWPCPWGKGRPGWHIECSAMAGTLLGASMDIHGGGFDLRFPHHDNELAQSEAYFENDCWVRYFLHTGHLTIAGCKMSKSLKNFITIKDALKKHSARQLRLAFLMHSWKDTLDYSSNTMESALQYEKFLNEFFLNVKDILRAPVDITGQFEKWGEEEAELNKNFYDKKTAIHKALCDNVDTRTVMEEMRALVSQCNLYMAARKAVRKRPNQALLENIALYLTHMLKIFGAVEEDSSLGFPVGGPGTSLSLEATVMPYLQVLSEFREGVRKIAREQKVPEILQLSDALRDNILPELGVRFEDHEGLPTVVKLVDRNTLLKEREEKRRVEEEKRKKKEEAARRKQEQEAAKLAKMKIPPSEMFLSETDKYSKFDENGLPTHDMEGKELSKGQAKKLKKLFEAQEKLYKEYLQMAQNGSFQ
Kind of test: ELISA; protein coated at 1 μg/ml, OD 450 nm.

A further test concerns the target T3, His-AIMP1 (UniProt Q12904 1-312, limits assumed).
T3 construct: not shown: His tag
T3 sequence (looked up): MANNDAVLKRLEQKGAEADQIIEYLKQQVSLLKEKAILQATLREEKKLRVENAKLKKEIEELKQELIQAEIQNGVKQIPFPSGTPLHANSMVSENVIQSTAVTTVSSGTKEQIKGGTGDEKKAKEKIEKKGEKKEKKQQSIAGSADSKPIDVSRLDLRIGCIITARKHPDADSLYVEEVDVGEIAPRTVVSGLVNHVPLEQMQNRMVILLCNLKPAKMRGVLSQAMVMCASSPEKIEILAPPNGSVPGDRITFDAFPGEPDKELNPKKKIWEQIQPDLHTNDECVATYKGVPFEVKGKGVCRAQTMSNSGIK
Put plainly: ELISA; protein coated at 1 μg/ml, OD 450 nm.

The target in another test is T4, His-GRS (UniProt P41250 55-739).
T4 construct: not shown: His tag
T4 sequence (looked up): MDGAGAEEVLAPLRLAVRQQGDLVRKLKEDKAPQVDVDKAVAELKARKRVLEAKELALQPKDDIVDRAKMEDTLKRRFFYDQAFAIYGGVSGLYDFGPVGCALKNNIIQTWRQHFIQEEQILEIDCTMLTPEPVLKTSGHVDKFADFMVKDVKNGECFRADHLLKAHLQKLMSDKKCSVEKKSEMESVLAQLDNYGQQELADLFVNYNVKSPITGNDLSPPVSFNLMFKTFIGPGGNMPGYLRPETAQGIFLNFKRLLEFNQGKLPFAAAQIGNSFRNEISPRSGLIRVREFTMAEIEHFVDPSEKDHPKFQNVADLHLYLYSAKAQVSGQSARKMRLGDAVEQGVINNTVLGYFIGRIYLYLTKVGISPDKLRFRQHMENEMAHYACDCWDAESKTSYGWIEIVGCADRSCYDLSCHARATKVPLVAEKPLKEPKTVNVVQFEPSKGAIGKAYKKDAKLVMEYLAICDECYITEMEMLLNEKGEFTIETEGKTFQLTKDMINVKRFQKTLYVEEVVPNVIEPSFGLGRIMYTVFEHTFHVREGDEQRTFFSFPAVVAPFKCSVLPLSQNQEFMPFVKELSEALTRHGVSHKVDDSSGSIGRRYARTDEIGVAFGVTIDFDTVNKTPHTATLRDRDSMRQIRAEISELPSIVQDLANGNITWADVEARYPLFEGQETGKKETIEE
Kind of test: ELISA; protein coated at 1 μg/ml, OD 450 nm.

A further test deals with T5, His-WRS (UniProt P23381 1-471, limits assumed).
T5 construct: not shown: His tag
T5 sequence (looked up): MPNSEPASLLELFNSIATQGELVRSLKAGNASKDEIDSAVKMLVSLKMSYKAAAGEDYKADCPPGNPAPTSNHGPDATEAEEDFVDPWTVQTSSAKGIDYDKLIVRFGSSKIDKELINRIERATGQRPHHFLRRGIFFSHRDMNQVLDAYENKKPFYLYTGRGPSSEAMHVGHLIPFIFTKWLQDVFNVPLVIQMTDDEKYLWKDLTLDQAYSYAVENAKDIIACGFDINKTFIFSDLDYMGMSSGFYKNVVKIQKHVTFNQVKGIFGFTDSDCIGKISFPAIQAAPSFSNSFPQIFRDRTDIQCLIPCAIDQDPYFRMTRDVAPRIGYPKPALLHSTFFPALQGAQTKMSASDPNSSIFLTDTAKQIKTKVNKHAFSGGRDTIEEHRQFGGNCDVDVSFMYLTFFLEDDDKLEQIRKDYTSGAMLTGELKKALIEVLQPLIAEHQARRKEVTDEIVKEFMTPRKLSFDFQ
Put plainly: ELISA; protein coated at 1 μg/ml, OD 450 nm.

A further test addresses T6, His-KRS (UniProt Q15046 1-597).
T6 construct: not shown: His tag
Kind of test: ELISA; protein coated at 1 μg/ml, OD 450 nm.

The target of test [1] is T7, AIMP3 (Aminoacyl tRNA synthetase complex-interacting multifunctional protein 3) (Homo sapiens (Human), UniProt O43324 1-174, limits assumed).
T7 construct: also called AIMP3 단백질
T7 sequence: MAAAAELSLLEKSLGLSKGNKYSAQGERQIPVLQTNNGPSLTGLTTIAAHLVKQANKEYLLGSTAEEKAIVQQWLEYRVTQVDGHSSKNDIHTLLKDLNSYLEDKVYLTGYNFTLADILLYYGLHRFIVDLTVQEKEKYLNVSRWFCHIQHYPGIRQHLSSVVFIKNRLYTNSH
Put plainly: SPR; AIMP3 on CM5 chip, antibody flowed at various concentrations.

Test [2] concerns the target T8, 메티오닐 티알엔에이 합성효소 (methionyl-tRNA synthetase, MRS) (human, UniProt P56192 1-900).
T8 construct: Full-length protein; In the cross-reactivity ELISA two preparations were coated (His-MRS, MRS full) and the result is told only for 'MRS'; In the western blots and cell staining it is the endogenous MRS of H460, PANC-1 and SCK cells; In SPR it was on the chip as MRS+AIMP3 co-purified protein; also called His-MRS; MRS full
T8 sequence: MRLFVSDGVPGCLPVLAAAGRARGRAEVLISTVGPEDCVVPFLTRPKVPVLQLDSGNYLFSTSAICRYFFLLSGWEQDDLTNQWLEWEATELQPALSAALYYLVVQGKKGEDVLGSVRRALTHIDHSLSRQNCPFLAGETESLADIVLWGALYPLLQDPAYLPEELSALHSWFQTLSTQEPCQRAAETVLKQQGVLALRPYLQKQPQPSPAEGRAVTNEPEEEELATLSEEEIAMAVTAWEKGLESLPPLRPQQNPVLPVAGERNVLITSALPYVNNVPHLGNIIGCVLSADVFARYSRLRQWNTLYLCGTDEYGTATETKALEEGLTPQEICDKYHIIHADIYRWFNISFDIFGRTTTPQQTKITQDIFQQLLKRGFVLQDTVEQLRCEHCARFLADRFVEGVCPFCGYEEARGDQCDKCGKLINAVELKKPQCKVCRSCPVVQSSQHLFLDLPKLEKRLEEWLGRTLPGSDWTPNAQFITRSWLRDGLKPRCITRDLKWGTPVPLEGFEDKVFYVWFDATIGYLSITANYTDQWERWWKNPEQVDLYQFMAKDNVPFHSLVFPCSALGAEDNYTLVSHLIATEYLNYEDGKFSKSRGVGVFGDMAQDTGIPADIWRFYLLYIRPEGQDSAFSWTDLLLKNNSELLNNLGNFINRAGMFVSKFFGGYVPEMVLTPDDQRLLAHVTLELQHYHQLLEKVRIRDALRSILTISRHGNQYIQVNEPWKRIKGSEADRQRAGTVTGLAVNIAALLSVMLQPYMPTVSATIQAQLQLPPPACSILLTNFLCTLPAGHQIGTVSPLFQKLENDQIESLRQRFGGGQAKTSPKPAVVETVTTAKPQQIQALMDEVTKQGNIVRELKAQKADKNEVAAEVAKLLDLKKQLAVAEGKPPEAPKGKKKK
Put plainly: SPR; MRS+AIMP3 co-purified protein on CM5 chip, antibody flowed at various concentrations.

T6 sequence (Q15046 whole entry): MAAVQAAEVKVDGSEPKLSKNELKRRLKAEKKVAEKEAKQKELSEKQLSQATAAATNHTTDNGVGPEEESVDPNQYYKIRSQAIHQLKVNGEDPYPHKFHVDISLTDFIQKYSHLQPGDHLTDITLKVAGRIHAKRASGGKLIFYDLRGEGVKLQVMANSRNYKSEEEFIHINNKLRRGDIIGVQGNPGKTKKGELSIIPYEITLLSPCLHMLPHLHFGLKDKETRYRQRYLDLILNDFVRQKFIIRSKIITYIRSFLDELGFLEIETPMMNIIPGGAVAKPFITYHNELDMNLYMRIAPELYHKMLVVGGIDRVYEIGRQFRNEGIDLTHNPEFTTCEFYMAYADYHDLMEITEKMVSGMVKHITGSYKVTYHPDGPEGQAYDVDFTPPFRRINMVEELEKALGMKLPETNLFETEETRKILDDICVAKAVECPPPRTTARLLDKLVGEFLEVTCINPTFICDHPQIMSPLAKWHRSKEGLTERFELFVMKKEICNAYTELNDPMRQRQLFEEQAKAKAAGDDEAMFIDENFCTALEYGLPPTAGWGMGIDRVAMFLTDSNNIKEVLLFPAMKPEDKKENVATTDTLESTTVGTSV

B1: 8A12 항체 (anti-MRS monoclonal antibody 8A12) (antibody, mouse IgG2a, kappa, V domains shown)
VH: DVKLQESGPGLVKPSQSLSLTCTVTGYSITSEYAWTWIRQFPGNKLEWMGYINYNGNTNLNPSLKSRISIIRDTSKNQFFLQLNSVTTEDTATYYCARSLWPRGWFAYWGQGTLVTVSA
VL: DIQMTQSPSSMYASLGERVTITCKASQDINSYLSWFQQKPGKSPKTLMYRANRLVDGVPSRFSGSGSGQDYSLTISSLEYEDMGIYYCLQYDEFPRTFGGGTKLEIKA
notes: Mouse monoclonal from hybridoma 8A12 (also named 34-8F2); also called 8A12 IgG; 8A12 antibody
With B1, the binding result with 34S-AIMP2, with His-CRS, in the test with His-AIMP1, with His-GRS, with His-WRS and with His-KRS was “no binding (tested: 500 ng/ml)” throughout. For the same molecule, the binding result in test [1] is “no binding”. In test [2], this molecule came in with a dissociation constant Kd of 1.56 nM.

B2: 1E8 항체 (anti-MRS monoclonal antibody 1E8) (antibody, mouse IgG2a, kappa, V domains shown)
VH: DVKLQESGPGLVNPSQSLSLTCTVTGYSITSDYAWNWIRQFPGNKLEWMGYISYSGRTSYKSSLKSRISITRDTSKNQFFLELNSVTTEDTATYYCARDYGNFVGYFDVWGAGTTVTVSS
VL: DIVMTQSPSSLAVSVGEKVTMSCKSSQSLLYSSNQKNYLAWYQQKPGQSPKLLIYWASTRESGVPDRFTGSGSGTEFTLTISSVKAEDLAVYYCQQYYSYPTFGGGTKLEIKA
notes: Mouse monoclonal from hybridoma 1E8 (immunogen MRS-AIMP3 co-purified protein); also called 1E8 IgG; 1E8 antibody
As for B2, the binding result with 34S-AIMP2, with His-CRS, with His-AIMP1, with His-GRS, in the test with His-WRS and with His-KRS was “no binding (tested: 500 ng/ml)” throughout. The binding result in test [1] was “no binding”. The same molecule yielded a Kd in test [2] of 5.42 nM.

These data come from patent KR20190026632A (dated 2019).
